From US20180250392A1 (published 2018)

Key:
[1] = molecular target: T1, human VEGFR2 (soluble hVEGFR2) (human, UniProt P35968 20-764); experiment: Biacore, human VEGFR2
T1 construct: also called KDR

[2] = molecular target: rat VEGFR2 (rat, UniProt O08775 20-760, limits assumed); experiment: Biacore, rat VEGFR2
[3] = molecular target: T2, murine VEGFR2 (soluble mVEGFR2) (murine, UniProt P35918 20-762); experiment: Biacore, murine VEGFR2
T2 construct: also called mouse VEGFR2
T2 sequence (P35918 20-762 limits assumed): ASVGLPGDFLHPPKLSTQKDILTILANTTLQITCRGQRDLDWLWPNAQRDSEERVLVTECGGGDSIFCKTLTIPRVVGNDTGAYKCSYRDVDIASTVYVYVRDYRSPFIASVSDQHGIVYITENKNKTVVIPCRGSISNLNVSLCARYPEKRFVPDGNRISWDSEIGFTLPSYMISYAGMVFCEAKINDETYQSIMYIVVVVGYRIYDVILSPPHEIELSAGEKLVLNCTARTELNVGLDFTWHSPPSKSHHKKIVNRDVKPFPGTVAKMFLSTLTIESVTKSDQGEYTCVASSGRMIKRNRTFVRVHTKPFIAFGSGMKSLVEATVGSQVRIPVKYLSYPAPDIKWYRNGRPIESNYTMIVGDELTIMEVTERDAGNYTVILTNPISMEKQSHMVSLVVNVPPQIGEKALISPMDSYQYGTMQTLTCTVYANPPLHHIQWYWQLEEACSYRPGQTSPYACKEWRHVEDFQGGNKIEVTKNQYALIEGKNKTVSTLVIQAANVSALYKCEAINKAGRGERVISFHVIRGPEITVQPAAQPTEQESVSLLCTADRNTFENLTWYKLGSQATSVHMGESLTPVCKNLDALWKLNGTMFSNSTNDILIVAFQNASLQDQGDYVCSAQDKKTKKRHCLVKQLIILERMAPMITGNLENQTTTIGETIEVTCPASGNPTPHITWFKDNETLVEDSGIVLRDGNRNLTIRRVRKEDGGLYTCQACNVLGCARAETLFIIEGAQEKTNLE

rat VEGFR2, sequence (O08775 20-760 limits assumed): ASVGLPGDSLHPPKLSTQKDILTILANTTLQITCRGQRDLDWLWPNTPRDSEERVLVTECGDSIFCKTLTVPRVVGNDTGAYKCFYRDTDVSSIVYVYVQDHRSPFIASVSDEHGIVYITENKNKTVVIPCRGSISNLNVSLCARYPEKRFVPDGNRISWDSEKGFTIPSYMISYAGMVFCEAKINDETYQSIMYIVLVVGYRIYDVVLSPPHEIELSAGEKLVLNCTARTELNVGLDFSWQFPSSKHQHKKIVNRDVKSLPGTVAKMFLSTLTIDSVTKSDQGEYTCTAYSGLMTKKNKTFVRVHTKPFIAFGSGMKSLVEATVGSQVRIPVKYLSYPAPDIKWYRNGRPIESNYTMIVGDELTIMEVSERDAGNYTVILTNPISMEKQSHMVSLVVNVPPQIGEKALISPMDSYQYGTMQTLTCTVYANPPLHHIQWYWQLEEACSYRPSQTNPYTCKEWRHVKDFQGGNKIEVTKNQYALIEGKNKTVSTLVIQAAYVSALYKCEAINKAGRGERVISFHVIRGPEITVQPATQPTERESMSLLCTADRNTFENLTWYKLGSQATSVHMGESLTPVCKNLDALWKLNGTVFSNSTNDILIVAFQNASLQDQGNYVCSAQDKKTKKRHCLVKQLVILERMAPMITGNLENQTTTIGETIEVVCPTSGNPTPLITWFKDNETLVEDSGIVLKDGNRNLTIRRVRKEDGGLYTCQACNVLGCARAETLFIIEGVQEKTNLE
T1 sequence (P35968 20-764 limits assumed): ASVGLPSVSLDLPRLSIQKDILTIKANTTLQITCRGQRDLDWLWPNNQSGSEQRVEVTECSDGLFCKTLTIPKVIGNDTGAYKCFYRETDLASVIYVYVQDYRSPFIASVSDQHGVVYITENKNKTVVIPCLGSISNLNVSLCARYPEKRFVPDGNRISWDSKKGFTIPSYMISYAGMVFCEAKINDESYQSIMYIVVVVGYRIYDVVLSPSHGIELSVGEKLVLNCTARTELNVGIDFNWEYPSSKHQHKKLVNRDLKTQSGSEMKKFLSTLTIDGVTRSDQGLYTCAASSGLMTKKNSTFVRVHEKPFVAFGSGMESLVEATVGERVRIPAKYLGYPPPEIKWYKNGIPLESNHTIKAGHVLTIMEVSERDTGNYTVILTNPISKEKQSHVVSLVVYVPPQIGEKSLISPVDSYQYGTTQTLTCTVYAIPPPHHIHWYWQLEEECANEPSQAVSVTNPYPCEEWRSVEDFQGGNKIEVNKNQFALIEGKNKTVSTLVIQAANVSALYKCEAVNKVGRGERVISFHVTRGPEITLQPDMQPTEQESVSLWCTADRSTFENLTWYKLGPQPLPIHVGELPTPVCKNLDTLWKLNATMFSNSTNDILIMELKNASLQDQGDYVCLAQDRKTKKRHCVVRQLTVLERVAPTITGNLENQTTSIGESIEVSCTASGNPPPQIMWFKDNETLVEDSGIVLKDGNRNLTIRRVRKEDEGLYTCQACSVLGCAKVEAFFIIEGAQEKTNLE

B1: Mab 149 (B1C4_E5) (antibody, V domains shown)
VH: EVQLLESGGGLVQPGGSLRLSCAASGFTFSWYVMGWVRQAPGKGLEWVSSIYPSGGATNYADSVKGRFTISRDNSKNTLYLQMNSLRAEDTAVYYCARGNYLDYWGQGTLVTVSS
VL: DIQMTQSPGTLSLSPGEGATLSCRASQSVSSNYFGWYQQKPGQAPRLLIYGASSRATGIPDRFSGSGSGTDFTLTISRLEPEDSAVYYCQQFDSSPLSFGGGTKVEIKR
[1]
  koff: 0.000659 s⁻¹
  kon: 86200 M⁻¹ s⁻¹
[2]
  koff: 0.00143 s⁻¹
  kon: 33200 M⁻¹ s⁻¹
[3]
  koff: 0.00181 s⁻¹
  kon: 22900 M⁻¹ s⁻¹

B2: Mab 147 (B1C4_A7) (antibody, V domains shown)
VH: EVQLLESGGGLVQPGGSLRLSCAASGFTFSWYVMGWVRQAPGKGLEWVSSIYPQGGATSYADSVKGRFTISRDNSKNTLYLQMNSLRAEDTAVYYCARGNYFDYWGQGTLVTVSS
VL: DIQMTQSPGTLSLSPGEGATLSCRASQSVSSNYFGWYQQKPGQAPRLLIYGASSRATGIPDRFSGSGSGTDFTLTISRLEPEDSAVYYCQQFDSLPLTFGGGTKVEIKR
[1]
  koff: 0.000282 s⁻¹
  kon: 113000 M⁻¹ s⁻¹
[2]
  koff: 0.000899 s⁻¹
  kon: 64500 M⁻¹ s⁻¹
[3]
  koff: 0.00128 s⁻¹
  kon: 43800 M⁻¹ s⁻¹
